The values below are quoted from earlier work in article PMC11168107.

Like-named read-outs stand apart in the source and are kept apart here.

Data set [1] addresses Bin1 SH3 (Homo sapiens) (UniProt O00499).
For data set [2] the target is unchanged. This is another data set of the same source.

Chain of UniProt O00499 (O00499 517-593): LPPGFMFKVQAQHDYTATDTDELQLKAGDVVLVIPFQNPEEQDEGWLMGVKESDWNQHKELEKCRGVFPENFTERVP

As usually defined, the Kd is the concentration at which binding is half-saturated. Regarding MYC 55-68 (from UniProt P01106), in the data set with Bin1 SH3 (Homo sapiens) [1], the Kd was 4.2 µM. Regarding MYC 1-88 (from UniProt P01106), the Kd with Bin1 SH3 (Homo sapiens) [2] is 33 µM.
